Article PMC8299219 (Cell, 2021)
Residue numbers refer to the chain shown, from its start.

B1: C53E4 (antibody, V domains shown)
VH: QVQLVQSGAEVKKPGASVKVSCKASGYTYTSYGISWVRQAPGRGLEWMGWISAYNGNTNYAQKLQGRVTMTTDTSTSTAYMELRSLRSDDTAVYYCARDQGLWYYYDSSGFALDYWGQGTLVTVSS
VL: EIVLTQSPATLSLSPGERATLSCRASQSVSSYLAWYQQKPGQAPRLLIYDASNRATGIPARFSGSGSGTDFTLTISSLEPEDFAVYYCQQRSNWPRYTFGQGTKLEIK
B2: C53E6 (antibody, V domains shown)
VH: EVQLVESGGGLVKPGGSLKLSCAASGFTFSSYSMNWVRQAPGKGLEWVSSISSSSSYIYYADSVKGRFTISRDNAKNSLYLQMNSLRAEDTAVYYCARASYDFWSGQDHWFDPWGQGTLVTVSS
VL: B1 VL with R61K, R96P, Y97I, K104R
B3: C83B6 (antibody, V domains shown)
VH: EVQLVESGGGLVKPGGSLRLSCAASGFTFSSYSMNWVRQAPGKGLEWVSYISSSSSTIYYADSVKGRFTISRDNAKNSLYLQMNSLRDEDTAVYYCARDRGGYGPYYYGMDVWGQGTTVTVSS
VL: not shown
B4: C41N3 (antibody, V domains shown)
VH: EVQLVESGGGLVQPGRSLRLSCAASGFTFDDYAMHWVRQAPGKGLEWVSGISWQSGSIGYADSVKGRFTISRDNAKNSLYLQMNSLRAEDTALYYCAKDPGYDSSGYYYDYWGQGALVTVSS
VL: not shown
B5: C93D6 (antibody, V domains shown)
VH: EVQLVESGGGLVKPGGSLRLSCAASGFTFSSYSMNWVRQAPGKGLEWVSSISSSSSYIYYADSVKGRFTISRDNAKNSLYLQMNSLRAEDTAVYYCASDLMEDYDFLSGSATSPFDYWGQGTLVTVSS
VL: not shown
B6: G32L2 (antibody, V domains shown)
VH: QVQLVESGGGVVQPGTSLRLSCAASGFTFSNYDIHWVRQAPGKGLEWVAVISYDGSNKYYADSVKGRFTISRDNSKNTLYLQMNSLRAEDTAVYYCAKDLVLRYFDWLFDGPDYWGQGTLVTVSS
VL: SYELTQPPSVSVSPGQTARITCSGDALPKKYAYWYQQKSGQAPVLVIYEDSKRPSGIPERFSGSSSGTMATLTISGAQVEDEADYYCYSTDSSGNHGVFGGGTKLTVL
B7: C81H5 (antibody, V domains shown)
VH: QVQLVQSGAEVRKPGASVKVSCKVSEYTLTELSIHWVRQAPGKGLEWMGGFDPEDGETIYAQKFQGRVTMTEDTSTDTAYMELSSLRSEDTAVYYCATAPAYCPGGVCPRGWFDPWGQGTLVTVSS
VL: QSALTQPRSVSGSPGQSVTISCTGTSSDVGGYNYVSWYQQHPGKAPKLMIYDVSKRPSGVPDRFSGSKSGNTASLTISGLQAEDEADYYCCSYAGSYTYVFGTGTKVTVL
B8: G32L6 (antibody, V domains shown)
VH: QVQLVQSGAEVKKPGASVKVSCKVSGYTLTELSMHWVRQAPGKGLEWMGGFDPEDGETIYAQKFQGRVTMTEDTSTDTAYMELSTLRSEDTAVYYCATAPAVAGTFENYYYYYGLDVWGQGTTVTVSS
VL: not shown
B9: C81B2 (antibody, V domains shown)
VH: QVQLVQSGAEVKKPGASVKVSCKVSGYTLIELSMHWVRQAPGKGLEWMGGFDPEDGETIYAQKFQGRVTMTEDTSTDTAYMELSSLRSEDTAVYYCATGPSIAVRGWFDPWGQGTLVTVSS
VL: QSVLTQPPSVSAAPGQKVTISCSGSSSNIGNNYVSWYQQLPGTAPKLLIYENNKRPSGIPDRFSGSKSGTSATLGITGLQTGDEADYYCGTWDSSLSAGGVFGGGTKLTVL
B10: C81G10 (antibody, V domains shown)
VH: B9 VH with I30T, M34I, G99T, P100T, S101V, I102L, V104A, R105A, G106S
VL: QSALTQPASVSGSPGQSITISCTGTNSDVGSYNLVSWYQQHPGKAPKLMIYEGSKRPSGVSNRFSGSKSGNTASLTISGLQAEDEADYYCCSYAGSGTVVFGGGTKLTVL
B11: C41C3 (antibody, V domains shown)
VH: QVQLQESGPGLVKPSETLSLTCTVSGGSISSYYWSWIRQPPGKGLEWIGYIYYSGSTNYNPSLKSRVTISVDTSKNQFSLKLSSVTAADTAVYYCARAAEYYDFWSGYYRNWFDPWGQGTLVTVSS
VL: not shown
B12: C81H2 (antibody, V domains shown)
VH: QVQLVQSGSELKKPGASVKVSCKASGYTFTSYAMNWVRQAPGQGLEWMGWINTNTGNPTYAQDFTGRFVFSLDTSVSTAYLQISSLKAEDTAMYYCARGSMITFGGILEPVLQFDYWGQGTLVTVSS
VL: not shown
B13: C81C6 (antibody, V domains shown)
VH: B9 VH with I30T, M70V, G99S, S101A, V104A, R105T, F108L
VL: QSALTQPASVSGSPGQSITISCTGTSSDVGSYNLVSWYQQHPGKAPKLMIYEGNKRPSGVSNRFSGSKSGNTASLTISGLQAEDEADYYCCSYAGSSTHWVFGGGTKLTVL
B14: C83A8 (antibody, V domains shown)
VH: QVQLVQSGAEVKKPGSSVKISCKASGGTFSSNAISWVRQAPGQGLEWMGGIIPILTTTNYAERLQGRVTITADESTSTAYMELSSLRSEDTAVYYCASQGRKSCITVFGVVDLLCYSNGMDVWGQGTTVTVSS
VL: QSALTQPASVSGSPGQSITISCTGTSSDVGGYKYVSWYQHHPGKAPKLMIYDVSNRPSGVSNRFSGSKSGNTASLTISGLQAEDEAEYYCSSFTTSSTLVVFGGGTKLTVL
B15: G32A12 (antibody, V domains shown)
VH: QVQLVQSGAEVKKPGASVKVSCKASGYTFTSYYMHWVRQAPGQGLEWMGIINPSGGSTSYAQKFQGRVTMTRDTSTSTVYMELSSLRSEDTAVYYCARDPTMTTVTTLDDYYYYYGMDVWGQGTTVTVSS
VL: not shown
B16: C81D7 (antibody, V domains shown)
VH: not shown
VL: SYELTQPPSVSVAPGKTARITCGGNNIGSKSVHWYQQKPGQAPVLVVYDDSDRPSGIPERFSGSNSGNTATLTISRVEAGDEADYYCQVWDSSSDSWVFGGGTKLTVL
B17: C81E3 (antibody, V domains shown)
VH: QVQLVESGGGVVQPGRSLRLSCAASGFTFSSYAMHWVRQAPGKGLEWVAVISYDGSNKYYADSVKGRFTISRDNSKNTLYLQMNSLRAEDTAVYYCARVSSMDVLRYFDPLDVWGNGTTVTVSS
VL: SYELTQPPSVSVSPGQTARITCSGDALPKQYAYWYQQKPGQAPVLVIYKDSERPSGIPERFSGSSSGTTVTLTISGVQAEDEADYYCQSADSSGTYHVVFGGGTKLTVL
B18: C12D8 (antibody, V domains shown)
VH: EVQLVESGGGLVQPGGSLRLSCAASGFTFSSYWMSWVRQAPGKGLEWVANIKQDGSEKYYVDSVKGRFTISRDNAKNSLYLQMNSLRAEDTAVYYCARDDGLREPFDYWGQGTLVTVSS
VL: not shown
B19: C81E4 (antibody, V domains shown)
VH: QVQLVESGGGVVQPGRSLRLSCEASGFTFSNYAMHWVRQAPGKGLEWVAVISYDGSNKYYADSVKGRFTISRDNSKNTLYLQMNSLRAEDTAVYYCASCGITMVQGAHPDAFDIWGQGTMVTVSS
VL: B16 VL with S29T, S92R, S96H, W97V, V98L
B20: C83B5 (antibody, V domains shown)
VH: EVQLVQSGAEVKKPGESLRISCKGSGYSFTSYWISWVRQMPGKGLEWMGRIDPSDSYTNYSPSFQGHVTISADKSISTAYLQWSSLKASDTAMYYCARQNYYDSSGHPDAFDIWGQGTMVTVSS
VL: not shown
B21: C81G1 (antibody, V domains shown)
VH: QVQLVQSGAEVKKPGSSVKVSCKASGGTFSSYGITWVRQAPGQGLEWMGGIIPIFGTANYAQKFQGRVTITADESTSTAYMDLSSLRSEDTAVYYCAILGDDYNDVDYWGQGTLVTVSS
VL: not shown
B22: C12A8 (antibody, V domains shown)
VH: QVQLVQSGAEVKKPGASVKVSCKVSGYTLTELSMHWVRQAPGKGLEWMGGFDPEDGETIYAQKFQGRVTMTEDTSTDTAYMELSSLRSEDTAVYYCATVSWPNYYDGTLYYFDYWGQGTLVTVSS
VL: DIQMTQSPSSLSASVGDRVTITCRASQGIRNDLGWYQQKPGKAPKRLIYAASSLQSGVPSRFRGSGSGTEFTLTISSLQPEDFATYYCLQHYSYPFTFGPGTKVDIK
B23: C63D4 (antibody, V domains shown)
VH: EVQLVESGGGLVQPGGSLRLSCAASGFTFSTYEMNWVRQAPGKGLEWVSYISSSGSTISYADSVKGRFTISRDNAKNSLYLQMNSLRAEDTAVYYCARDSPHYDYIWGSYRLRGAFDIWGQGTMVTVSS
VL: QSALTQPPSASGSPGQSVTISCTGTSSDVGGYNYVSWYQQHPGKAPKLMIYEVSKRPSGVPDRFSGSKSGNTASLTVSGLQAEDEADYYCSSYTGSNTLYVFGTGTKVTVL
B24: C18D5 (antibody, V domains shown)
VH: QVQLVQSGAEVKTPGASVKVSCKASGFTFTNYDLNWVRQAPGQGLEWMGWMNPKSGDTRSAQRFQGRVTMTRDTSISTAYMEMNTLRSEDTAVYYCARGRGDYSDDDFPALYLWGQGTLVTVSS
VL: not shown
B25: C81H7 (antibody, V domains shown)
VH: QVQLVESGGGVVQPGRSLRLSCAASGFTFSSYGMHWVRQAPGKGLEWVAVIWYDGSNKYYAESVKGRFTISRDNSKNTLYLQMNSLRAEDTAVYYCARPPSVVRHDAFDIWGQGTMVTVSS
VL: B6 VL
B26: C882C12 (antibody, V domains shown)
VH: QVQLVQSGAEVKKPGASVKVSCKASGYTFTGYYMHWVRQAPGQGLEWMGWINPNSDVTNYAQKFQGWVTMTRDTSISTAYMELSRLRSDDTAVYYCAREIPSSGYYSGGLDYWGQGTLVTVSS
VL: B7 VL with H41Y, S96T, Y99G, T103G, V107L

These binders were tested against SARS-CoV-2 S ectodomain trimer, prefusion-stabilized, 2P variant (Wrapp et al., 2020) (SARS-CoV-2, Wuhan-Hu-1, UniProt P0DTC2, stabilised).
B1: binds.
B2: binds.
B3: binds.
B4: binds.
B5: binds.
B6: binds.
B7: binds.
B8: binds.
B9: binds.
B10: binds.
B11: binds.
B12: binds.
B13: binds.
B14: binds.
B15: binds.
B16: binds.
B17: binds.
B18: binds.
B19: binds.
B20: binds.
B21: binds.
B22: binds.
B23: binds.
B24: binds.
B25: binds.
B26: binds.
